From patent US20240239894A1 (AstraZeneca / MedImmune, published 2024)
Substitutions are numbered along the chain they refer to.

T1: Murine B7-H4 ECD-Flag-His10 (monomeric) (mouse, UniProt Q7TSP5 25-257)
T1 construct: extracellular domain; also called FlagHis10 murine B7-H4
T1 sequence (looked up): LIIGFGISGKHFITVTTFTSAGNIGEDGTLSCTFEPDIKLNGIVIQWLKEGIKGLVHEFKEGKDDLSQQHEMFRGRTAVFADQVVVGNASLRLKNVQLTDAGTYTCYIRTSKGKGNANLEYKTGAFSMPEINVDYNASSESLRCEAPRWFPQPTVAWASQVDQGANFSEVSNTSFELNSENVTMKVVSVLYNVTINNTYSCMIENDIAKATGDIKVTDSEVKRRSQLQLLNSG

T2: huB7-H3 (human, UniProt Q5ZPR3 29-461, limits assumed)
T2 construct: Sourced antigen; construct not described; also called Human B7-H3
T2 sequence (looked up): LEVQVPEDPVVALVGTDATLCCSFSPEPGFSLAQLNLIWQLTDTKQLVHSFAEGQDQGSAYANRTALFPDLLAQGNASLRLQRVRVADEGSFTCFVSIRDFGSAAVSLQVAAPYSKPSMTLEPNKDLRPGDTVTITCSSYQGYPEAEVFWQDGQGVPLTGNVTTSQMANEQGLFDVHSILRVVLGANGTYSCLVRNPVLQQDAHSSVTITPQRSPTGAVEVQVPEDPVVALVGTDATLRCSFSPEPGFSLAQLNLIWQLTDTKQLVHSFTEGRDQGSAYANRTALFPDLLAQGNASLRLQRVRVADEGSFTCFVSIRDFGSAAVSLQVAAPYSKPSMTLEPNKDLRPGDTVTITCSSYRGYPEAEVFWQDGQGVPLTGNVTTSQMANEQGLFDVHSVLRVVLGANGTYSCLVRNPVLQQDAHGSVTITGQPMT

T3: huBTN1A1 (human, UniProt Q13410 27-242, limits assumed)
T3 construct: Sourced antigen; construct not described; also called Human BTN1A1
T3 sequence (looked up): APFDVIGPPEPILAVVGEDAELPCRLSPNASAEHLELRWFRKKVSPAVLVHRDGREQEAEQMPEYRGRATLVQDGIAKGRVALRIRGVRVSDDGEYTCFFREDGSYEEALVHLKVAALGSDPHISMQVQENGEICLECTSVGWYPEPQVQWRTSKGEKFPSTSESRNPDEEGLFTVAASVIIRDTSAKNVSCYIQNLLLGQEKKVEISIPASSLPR

T4: huHHLA2 (human, UniProt Q9UM44 23-344)
T4 construct: Sourced antigen; construct not described; also called Human HHLA2
T4 sequence (looked up): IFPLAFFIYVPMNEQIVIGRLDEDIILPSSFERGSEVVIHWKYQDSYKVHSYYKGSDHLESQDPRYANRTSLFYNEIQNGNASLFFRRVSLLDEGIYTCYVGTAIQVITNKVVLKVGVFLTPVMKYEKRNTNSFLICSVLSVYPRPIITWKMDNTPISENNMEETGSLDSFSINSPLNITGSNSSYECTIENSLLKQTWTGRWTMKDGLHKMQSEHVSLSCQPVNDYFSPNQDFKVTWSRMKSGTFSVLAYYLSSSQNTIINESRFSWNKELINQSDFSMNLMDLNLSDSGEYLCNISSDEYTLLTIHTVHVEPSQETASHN

T5: huBTN2A1 (human, UniProt Q7KYR7 29-248, limits assumed)
T5 construct: Sourced antigen; construct not described; also called Human BTN2A1
T5 sequence (looked up): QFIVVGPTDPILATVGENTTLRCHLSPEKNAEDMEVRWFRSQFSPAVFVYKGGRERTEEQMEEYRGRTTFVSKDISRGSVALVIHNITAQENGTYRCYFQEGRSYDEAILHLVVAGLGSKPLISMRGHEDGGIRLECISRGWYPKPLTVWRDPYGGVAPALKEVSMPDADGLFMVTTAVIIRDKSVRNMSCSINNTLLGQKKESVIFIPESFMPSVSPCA

T6: huB7-H2 (human, UniProt O75144 19-258)
T6 construct: Sourced antigen; construct not described; also called Human B7-H2
T6 sequence (looked up): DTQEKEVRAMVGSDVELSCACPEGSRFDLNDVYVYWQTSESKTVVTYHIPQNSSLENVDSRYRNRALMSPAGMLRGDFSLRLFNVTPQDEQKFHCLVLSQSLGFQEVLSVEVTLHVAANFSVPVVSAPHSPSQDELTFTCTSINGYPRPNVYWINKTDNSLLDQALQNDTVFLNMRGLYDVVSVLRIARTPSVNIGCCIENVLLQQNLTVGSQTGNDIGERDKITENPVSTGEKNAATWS

T7: Human B7-H4 ECD-Flag-His10 (monomeric) (human, UniProt Q7Z7D3 25-259)
T7 construct: Minimally biotinylated for KinExA; also called hB7H4-ECD-Flag-His10; B7-H4-FLAG
T7 sequence: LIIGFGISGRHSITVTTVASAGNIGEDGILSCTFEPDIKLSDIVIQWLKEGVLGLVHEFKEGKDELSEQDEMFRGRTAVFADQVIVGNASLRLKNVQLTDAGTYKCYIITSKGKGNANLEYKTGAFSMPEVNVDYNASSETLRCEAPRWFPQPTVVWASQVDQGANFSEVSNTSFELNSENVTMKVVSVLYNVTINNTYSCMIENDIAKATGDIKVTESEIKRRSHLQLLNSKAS

B1: ZY0EOB-F05 human IgG1-TM (antibody, V domains shown)
VH: QVQLQESGPGLVKPSQTLSLTCTVSDGSISSGGYYWSWIRQHPGKGLEWIGNIYYSGSTYYNPSLKSRVTISVDTSKNQFSLKLNSVTAADTAVYYCATEKALATVTPSGYENYYTVDVWGQGTTVTVSS
VL: DIQLTQSPSFLSASVGDRVTITCWASQGISSYLAWYQQKPGKAPKLLIYAASTLQSGVPSRFSGSGSGTEFTLTISSLQPEDFATYYCQHLNSYPLTFGGGTKVEIK
B2: ZY0EQD-E02 human IgG1-TM (antibody, V domains shown)
VH: QVQLQQWGAGLLKPSETLSLTCAVYGGSFSGYYWNWIRQPPGKGLEWIGEINHSGSTSYNPSLKSRVTISVDTSKNQFSLKLSSVTAADTAVYYCARVLYNWNVDSWGQGTLVTVSS
VL: DIQMTQSPSSLSASVGDRVTITCRASQDIRNDVGWYQQKPGKAPKRLIYAASRLQSGVPSRFSGSGSGTEFTLTISSLQPEDFATYYCLQHNSYPRTFGQGTKVEIK
B3: ZY0EPQ-E02 human IgG1-TM (antibody, V domains shown)
VH: B2 VH with S58N, S70L, V98N, V104L
VL: B2 VL with D28G, V33L, K42R, A50V, R53S
B4: ZY0EP0-C07 human IgG1-TM (antibody, V domains shown)
VH: QVQLVESGGVLVKPGGSLRLSCAASGFTLSDYYMSWIRQAPGMGLEWVSYISSSGSTIYYTDSVKGRFTISRDSAKNSLYLQMNSLRAEDTAVYYCARDGVGFDYWGQGTLVTVSS
VL: EIVLTQSPGTLSLFPGERATLSCRASQSVSSSYLAWYQQKPGQSPRLLIYAASSRATGIPDRFSGSGSGTDFTLTISRLEPEDFAVYYCQQYGSSPLYTFGQGTKLEIK
notes: also called ZY0EPO-C07

Target: T1, Murine B7-H4 ECD-Flag-His10 (monomeric)
Assay: Octet; summary table, repeats Table 9 (hIgG1-TM)

Row | Binder | Kd [nM]
1 | B1 | 25
2 | B2 | 621
3 | B3 | 396
4 | B4 | 11

Target: T8, Human B7H4 ECD (SV), splice variant, 10His_FLAG (human)
T8 construct: also called B7-H4-SV
Assay: Octet; summary table, repeats Table 9 (hIgG1-TM)

Row | Binder | Kd [nM]
5 | B1 | 174
6 | B2 | 801
7 | B3 | 1660

Target: T2, huB7-H3
Assay: ELISA

Row | Binder | binding result
8 | B1 | no binding
9 | B2 | no binding
10 | B3 | no binding
11 | B4 | no binding

Target: T9, huBTN3A2 (human, UniProt P78410 30-248, limits assumed)
T9 construct: Sourced antigen; construct not described; also called Human BTN3A2
Assay: ELISA

T9 sequence (P78410 30-248 limits assumed): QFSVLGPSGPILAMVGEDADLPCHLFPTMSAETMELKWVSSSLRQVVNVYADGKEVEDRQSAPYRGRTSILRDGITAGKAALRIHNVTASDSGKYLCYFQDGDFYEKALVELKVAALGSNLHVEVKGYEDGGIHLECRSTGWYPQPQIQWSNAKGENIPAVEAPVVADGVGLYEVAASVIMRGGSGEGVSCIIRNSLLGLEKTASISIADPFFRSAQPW

Row | Binder | binding result
12 | B1 | no binding
13 | B2 | no binding
14 | B3 | no binding
15 | B4 | no binding

Target: T3, huBTN1A1
Assay: ELISA

Row | Binder | binding result
16 | B1 | no binding
17 | B2 | no binding
18 | B3 | no binding
19 | B4 | no binding

Target: T4, huHHLA2
Assay: ELISA

Row | Binder | binding result
20 | B1 | no binding
21 | B2 | no binding
22 | B3 | no binding
23 | B4 | no binding

Target: T5, huBTN2A1
Assay: ELISA

Row | Binder | binding result
24 | B1 | no binding
25 | B2 | no binding
26 | B3 | no binding
27 | B4 | no binding

Target: T6, huB7-H2
Assay: ELISA

Row | Binder | binding result
28 | B1 | no binding
29 | B2 | no binding
30 | B3 | no binding
31 | B4 | no binding

Target: T1, Murine B7-H4 ECD-Flag-His10 (monomeric)
Assay: Octet BLI; end of the range tied to the member by Table 9

Row | Binder | Kd [nM]
32 | B2 | 10 to 600
33 | B4 | 10 to 600

Target: T7, Human B7-H4 ECD-Flag-His10 (monomeric)
Assay: as above

Row | Binder | Kd [nM]
34 | B3 | 10 to 25
35 | B4 | 10 to 25

Target: T8, Human B7H4 ECD (SV), splice variant, …
Assay: as above

Row | Binder | Kd [nM]
36 | B1 | 200 to 1600
37 | B3 | 200 to 1600
